The results in this text go back to the RNAGym collection of RNA variant scans (doi:10.7554/elife.80360).

B1: CPEB3 Ribozyme (parent)
chain: GGGGGCCACAGCAGAAGCGUUCACGUCGCGGCCCCUGUCAGAUUCUGGUGAAUCUGCGAAUUCUGCUGU

Variants of B1 are the subject of the series. Nature of the series: self-cleavage, relative activity (ratio to wild type); higher = more cleavage; co-transcriptional.
Consider GGGGGCCACAGCAGAAGCGUUCACGUCGUGGCCCCUGUCAGAUUCUGGUGAAUCUGCGAAUACUGCUGU [C29U U62A], for which the self-cleavage was determined as 0.15.

As to GGGGGCCACAGCAGAAGCGUUCACGUCGCAGCGCCUGUCAGAUUCUGGUGAAUCUGCGAAUUCUGCUGU [G30A C33G], the self-cleavage worked out at 0.227.

For the variant GGGGGCCACAGCAGAAGCGUUCACGUCGUGGCCCCUGUCAGAGUCUGGUGAAUCUGCGAAUUCUGCUGU [C29U U43G], the self-cleavage worked out at 0.168.

On to GGGGGCCACAGCAGAAGCGUUCACGUCGUGGCCCCUGUCAGAAUCUGGUGAAUCUGCGAAUUCUGCUGU [C29U U43A], for which the self-cleavage was 0.171.

Take GGGGGCCACAGCAGAAGCGUUCACGUCGCAGCCCCUGUCAGAUUCUGGUGAAUCUGCGAAUUGUGCUGU [G30A C63G]: the self-cleavage was determined as 0.483.

On to GGGGGCCACAGCAGAAGCGUUCACGUCGCAGCCCCUGUCAGAUUCUGGUGAAUCUGCGAAUUUUGCUGU [G30A C63U], for which the self-cleavage came to 0.839.

As to GGGGGCCACAGCAGAAGCGUUCACGUCGUGGCCCCUGUCAGAUACUGGUGAAUCUGCGAAUUCUGCUGU [C29U U44A], the self-cleavage was found to be 0.26.

Regarding GGGGGCCACAGCAGAAGCGUUCACGUCGCAGCCCCUGUCAGAUUCUGGUGCAUCUGCGAAUUCUGCUGU [G30A A51C], the self-cleavage amounted to 0.718.

GGGGGCCACAGCAGAAGCGUUCACGUCGCAGCCCCUGUCAGAUUCUGGUGAAUCUGCGAAUUCUGAUGU [G30A C66A]: the self-cleavage stood at 0.559.

For the variant GGGGGCCACAGCAGAAGCGUUCACGUCGUGGCCCCGGUCAGAUUCUGGUGAAUCUGCGAAUUCUGCUGU [C29U U36G], the self-cleavage came out at 0.147.

In the case of GGGGGCCACAGCAGAAGCGUUCACGUCGUGGCCCCCGUCAGAUUCUGGUGAAUCUGCGAAUUCUGCUGU [C29U U36C], the self-cleavage was determined as 0.244.

With GGGGGCCACAGCAGAAGCGUUCACGUCGUGGCCCCUGUCAGAUUCCGGUGAAUCUGCGAAUUCUGCUGU [C29U U46C], the self-cleavage amounted to 0.433.

As for GGGGGCCACAGCAGAAGCGUUCACGUCGUGGCCCCUGUCAGAUUCGGGUGAAUCUGCGAAUUCUGCUGU [C29U U46G], the self-cleavage worked out at 0.571.

As for GGGGGCCACAGCAGAAGCGUUCACGUCGCAGCCCUUGUCAGAUUCUGGUGAAUCUGCGAAUUCUGCUGU [G30A C35U], the self-cleavage was 0.533.

As to GGGGGCCACAGCAGAAGCGUUCACGUCGCAGCCCGUGUCAGAUUCUGGUGAAUCUGCGAAUUCUGCUGU [G30A C35G], the self-cleavage was 0.186.

For the variant GGGGGCCACAGCAGAAGCGUUCACGUCGUGGCCCCUGUCAGAUUCUGGUGAAUCUGCCAAUUCUGCUGU [C29U G58C], the self-cleavage was 0.398.

For the variant GGGGGCCACAGCAGAAGCGUUCACGUCGCAGCCCCUGUCAGAUUCUGGUGAGUCUGCGAAUUCUGCUGU [G30A A52G], the self-cleavage was 0.852.

Turning to GGGGGCCACAGCAGAAGCGUUCACGUCGCAGCCCCUGUCAGAUUCUGGUGAAUCUGCGCAUUCUGCUGU [G30A A59C], the self-cleavage was determined as 0.275.

Turning to GGGGGCCACAGCAGAAGCGUUCACGUCGCAGCCCCUGUCAGAUUCUGGUGAAUCUGCGGAUUCUGCUGU [G30A A59G], the self-cleavage came out at 0.708.

With GGGGGCCACAGCAGAAGCGUUCACGUCGUGGCCCCUGACAGAUUCUGGUGAAUCUGCGAAUUCUGCUGU [C29U U38A], the self-cleavage was 0.2.

Consider GGGGGCCACAGCAGAAGCGUUCACGUCGUGGCCCCUGUCAGAUUCUGGUGAAUCUGCGAAUUCUGCUCU [C29U G68C], for which the self-cleavage is 0.571.

On to GGGGGCCACAGCAGAAGCGUUCACGUCGCAGCCACUGUCAGAUUCUGGUGAAUCUGCGAAUUCUGCUGU [G30A C34A], for which the self-cleavage was determined as 0.286.

Turning to GGGGGCCACAGCAGAAGCGUUCACGUCGCAGCCGCUGUCAGAUUCUGGUGAAUCUGCGAAUUCUGCUGU [G30A C34G], the self-cleavage was found to be 0.278.

Take GGGGGCCACAGCAGAAGCGUUCACGUCGUGGCCCCUGUCAGAUUCUGGUGAAUCUGCGAACUCUGCUGU [C29U U61C]: the self-cleavage was determined as 0.183.

Consider GGGGGCCACAGCAGAAGCGUUCACGUCGUGGCCCCUGUCAGAUUCUGGUGAAUCUGCGAAUUCAGCUGU [C29U U64A], for which the self-cleavage was 0.171.

Regarding GGGGGCCACAGCAGAAGCGUUCACGUCGUGGCCCCUGUCAGAUUCUGGUGAAUCUGCGAAUUCGGCUGU [C29U U64G], the self-cleavage was found to be 0.206.

On to GGGGGCCACAGCAGAAGCGUUCACGUCGCAGCCCCUGUAAGAUUCUGGUGAAUCUGCGAAUUCUGCUGU [G30A C39A], for which the self-cleavage amounted to 0.362.

Turning to GGGGGCCACAGCAGAAGCGUUCACGUCGCAGCCCCUGUCAGAUUAUGGUGAAUCUGCGAAUUCUGCUGU [G30A C45A], the self-cleavage was 0.807.

On to GGGGGCCACAGCAGAAGCGUUCACGUCGCAGCCCCUGUCAGAUUCUGGUGAAUCUGGGAAUUCUGCUGU [G30A C57G], for which the self-cleavage turned out to be 0.247.

In the case of GGGGGCCACAGCAGAAGCGUUCACGUCGCAGCCCCUGUCAGAUUCUGGUGAAUCUGAGAAUUCUGCUGU [G30A C57A], the self-cleavage turned out to be 0.258.

As for GGGGGCCACAGCAGAAGCGUUCACGUCGUGGCCCCUGUCAGAUUCUGGUGAACCUGCGAAUUCUGCUGU [C29U U53C], the self-cleavage amounted to 0.143.

Turning to GGGGGCCACAGCAGAAGCGUUCACGUCGUGGCCCCUGUCAGAUUCUGGUGAAGCUGCGAAUUCUGCUGU [C29U U53G], the self-cleavage stood at 0.264.

As to GGGGGCCACAGCAGAAGCGUUCACGUCGUGGCCCCUGUCAGAUUCUGGUGAAACUGCGAAUUCUGCUGU [C29U U53A], the self-cleavage was found to be 0.267.

Take GGGGGCCACAGCAGAAGCGUUCACGUCGCAGCCCCUGUCAGAUUCUGGUGAAUCUGCGAGUUCUGCUGU [G30A A60G]: the self-cleavage came out at 0.395.

Turning to GGGGGCCACAGCAGAAGCGUUCACGUCGCAGCCCCUGUCAGAUUCUGGUGAAUCUGCGAUUUCUGCUGU [G30A A60U], the self-cleavage came out at 0.367.

With GGGGGCCACAGCAGAAGCGUUCACGUCGCAACCCCUGUCAGAUUCUGGUGAAUCUGCGAAUUCUGCUGU [G30A G31A], the self-cleavage is 0.365.

Turning to GGGGGCCACAGCAGAAGCGUUCACGUCGCAGCCCCUGUCAGCUUCUGGUGAAUCUGCGAAUUCUGCUGU [G30A A42C], the self-cleavage was found to be 0.623.

Consider GGGGGCCACAGCAGAAGCGUUCACGUCGCAGCCCCUGUCAGUUUCUGGUGAAUCUGCGAAUUCUGCUGU [G30A A42U], for which the self-cleavage was found to be 0.677.

GGGGGCCACAGCAGAAGCGUUCACGUCGCAGCCCCUGUCAGAUUCUGGUGAAUGUGCGAAUUCUGCUGU [G30A C54G]: the self-cleavage worked out at 0.333.
